Data from patent US20250381223A1 (UTC THERAPEUTICS SHANGHAI, published 2025).
Substitutions are numbered along the chain they refer to.

T1: BCMA-Fc recombinant protein (human, UniProt Q02223 1-54)
T1 construct: construct not described; not shown: Fc part
T1 sequence (looked up): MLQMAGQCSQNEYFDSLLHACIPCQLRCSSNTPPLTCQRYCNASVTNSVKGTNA

B1: huVH2huVL3 (antibody, human IgG1, kappa, V domains shown)
VH: QVQLQESGPGLVKPSETLSITCTVSGFSLSDYGVHWVRQPPGKGLEWLGVIWAGGGTNYNSALMSRKTISKDTSKNQVSLKMSSLTAADTAVYYCARDKGYSYYYSMDYWGQGTTVTVSS
VL: DIQLTQSPSSLSASVGDRVTITCRASESVEYYVTSLMQWYQQKPGKAPKLLIFAASNVESGVPSRFSGSGSGTDFTLTISSLQPEDFATYYCQQSRKVPYTFGGGTKLEIKR
B2: huVH4huVL3 (antibody, human IgG1, kappa, V domains shown)
VH: B1 VH with I20L, V37I, L48I, M64K, K67V, K71V, M82L, L85V
VL: B1 VL
B3: huVH4huVL2 (antibody, human IgG1, kappa, V domains shown)
VH: B1 VH with I20L, V37I, L48I, M64K, K67V, K71V, M82L, L85V
VL: B1 VL with D74N, L82V, Y91F
B4: huVH3huVL3 (antibody, human IgG1, kappa, V domains shown)
VH: B1 VH with I20L, P40S, L48I, M64K, T73N, N76S, M82L, L85V
VL: B1 VL
B5: huVH3huVL1 (antibody, human IgG1, kappa, V domains shown)
VH: B1 VH with I20L, P40S, L48I, M64K, T73N, N76S, M82L, L85V
VL: B1 VL with A13V, T22S, K46Q, D74N, L82V, P84E, T89M, Y91F
B6: huVH5huVL2 (antibody, human IgG1, kappa, V domains shown)
VH: QVQLQESGPGLVKPSETLSLTCTVSGFSISDYGVHWIRQPPGKGLEWIGVIWAGGGTNYNPSLKSRVTISVDTSKNQVSLKLSSVTAADTAVYYCARDKGYSYYYSMDYWGQGTTVTVSS
VL: B1 VL with D74N, L82V, Y91F
B7: BCMA23 (scFv)
scFv: QSALTQPPSASGTPGQRVTISCSGSSPNIGGNSVNWYQQLPGTAPKLLMYTNNQRPSGVPDRFSGSKSGTSASLAISGLQSEDEADYYCAAWDDSLNGVVFGGGTKLTVLGGGGSGGGGSGGGGSQVQLVQSGAEVKKPGESLKISCKGSGYSFTSYWIGWVRQMPGKGLEWMGIIYPGDSDTRYSPSFQGQVTISADKSISTAYLQWSSLKASDTAMYYCARRGGALDYWGQGTLVTVSS
notes: On lentivirus-transduced T cells as CAR; also called anti-BCMA scFv BCMA23
B8: BCMA22 (scFv)
scFv: QSALTQPASVSGSPGQSITISCTGTSSDVGGYNYVSWYQQHPGKAPKLMIYEVTNRPSGVSNRFSGSKSGNTASLTISGLQAEDEAHYYCISYTSSSTLDYVFGTGTKVTVLGGGGSGGGGSGGGGSEVQLVESGPGLVKPSGTLSLTCAVSGGSISSSNWWSWVRQPPGKGLEWIGEIYHSGSTNYNPSLKSRVTISVDKSKNQFSLKLSSVTAADTAVYYCARVGSGYSYGYGDRVLDYWGQGTLVTVSS
notes: On lentivirus-transduced T cells as CAR; also called anti-BCMA scFv BCMA22
B9: BCMA24 (scFv)
scFv: QSVLTQPPSASGTPGQRVTISCSGSSSNIGSYSVNWYQQIPGTAPKLLIYSNNQRPSGVPDRFSGSKSGTSASLAISGLQSEDEADYSCAAWDDSLNGVVFGGGTKLTVLGGGGSGGGGSGGGGSQVQLVQSGAEVKKPGSSVKVSCKASGGTFSSYAISWVRQAPGQGLEWMGGIIPIFGTANYAQKFQGRVTITADESTSTAYMELSSLRSEDTAVYYCARGSFYSSVNVWGQGTTVTVSS
notes: On lentivirus-transduced T cells as CAR; also called anti-BCMA scFv BCMA24
B10: BCMA27 (scFv)
scFv: QSALTQPPSASGSPGQSVTISCTGSRSNVGSYNDVSWYQQHPGKAPKLIIYDVDKRPAGVPDRFSGSKSGNTASLTVSGLQAEDDADYYCSSYGGTYSLFVFGTGTELTVLGGGGSGGGGSGGGGSEVQLVESGGDLVQPGGSLRLSCAASGFTFSSYGMHWVRQAPGKGLEWVAVISYDGSNKYYADSVKGRFTISRDNSKNTLYLQMNSLRAEDTAVYYCAKEEFYGDSSYGMDVWGQGTTVTVSS
notes: On lentivirus-transduced T cells as CAR; also called anti-BCMA scFv BCMA27

These binders were tested against T2, recombinant Human/Cynomolgus CD28 (N-6His) (Human/Cynomolgus, UniProt P10747 19-152) (assay: ELISA; plate coated with CD28 (N-6His) 2 µg/mL; HRP-anti-hFc).
T2 construct: Bought protein; also called antigen CD28; not shown: 6His tag at the N-terminus (N-6His)
Experimental: The binding activity of the humanized antibody to the antigen CD28 was detected by the ELISA method. The experimental procedures were as follows: [0525] 1. 30 μL of recombinant Human/Cynomolgus CD28 (N-6His) (Suzhou Novoprotein Scientific Inc., C406) at a concentration of 2 μg/mL was added to each well of an ELISA plate, and the plate was incubated at 4° C. overnight. [0526] 2. The next day, the ELISA plate was washed 3 times with PBST (containing 0.05% Tween-20). [0527] 3. 250 μL of 5% skim milk powder (dissolved in PBS) was added to each well of the ELISA plate, and the plate was incubated at room temperature for 2 h. [0528] 4. The plate was washed 3 times with PBST, antibodies with different dilution ratios were added to the ELISA plate at 30 μL/well, and the plate was incubated at room temperature for 60 min. [0529] 5. The plate was washed 3 times with PBST, 30 μL of HRP-anti-hFc antibody was added to each well, and the plate was incubated at room temperature for 60 min. [0530] 6. The plate was washed 3 times with PBST, 30 μL of TMB was added to each well, and after color development at room temperature, 30 μL of 2 M H₂SO₄ was added to each well to stop the reaction. The plate was read at 450 nm.

| Binder | EC50 [µg/mL] |
| --- | --- |
| B1 | 0.0104 |
| B2 | 0.0127 |
| B3 | 0.0126 |
| B4 | 0.00827 |
| B5 | 0.0121 |
| B6 | 0.0151 |

The binders below were run against T1, BCMA-Fc recombinant protein (assay: flow cytometry; CAR-T cells stained with 5 µg/mL BCMA-Fc, anti-human IgG Fc).
Experimental: (5) Screening for functional anti-BCMA scFv in T cells: the anti-BCMA scFv was constructed into a bicistronic lentiviral CAR expression vector containing an IRES-truncated EGFR (tEGFR) expression cassette. The lentivirus was produced by transient transfection of 293T cells, followed by purification by ultracentrifugation and concentration. T cells were transduced with the CAR lentivirus to generate CAR-T cells, which were then cultured for 10 days. 10 days after lentivirus transduction, CAR-T cells were collected and stained with 5 μg/mL CD19-Fc protein (Ctrl Fc protein) or BCMA-Fc recombinant protein for 30 min at 4° C. After washing, the CAR-T cells were stained with the anti-human IgG Fc and anti-EGFR mAb. The samples were analyzed using a flow cytometer.

| Binder | binding result |
| --- | --- |
| B7 | binds |
| B8 | binds |
| B9 | binds |
| B10 | binds |

These binders were tested against T3, CD28 (detection antigen of the BLI assay) (human, UniProt P10747 19-152, limits assumed) (assay: BLI (GATOR); antibody loaded at 30 nM, antigen 300-37.5 nM).
T3 construct: also called the antigen
From the text: The affinity kinetics of the humanized antibodies were detected using biolayer interferometry (BLI). The experimental procedures were as follows: [0533] 1. GATOR instrument was run, and the Kinetics experimental mode was selected. [0534] 2. The analysis program was run according to Table 5

| Binder | Kd [nM] | koff [s⁻¹] | kon [M⁻¹ s⁻¹] |
| --- | --- | --- | --- |
| B1 | 7.44 | 0.000635 | 85400 |
| B2 | 11.2 | 0.000966 | 86600 |
| B3 | 10.9 | 0.000932 | 85400 |
| B4 | 9.59 | 0.000818 | 85300 |
| B5 | 8.36 | 0.000727 | 86900 |
| B6 | 10.8 | 0.000909 | 84100 |
